From patent US20110212106A1, “HIV-1 NE[…] USES THEREOF” (priority 2010, published 2011)

What was measured:
[1] = target: IIIB gp120 envelope protein (HIV-1 IIIB) (UniProt P03375); test: ELISA, inhibition of gp120 binding to solid-phase sCD4
[2] = target: HIV-1 gp120 (strain not stated at these places) (HIV-1); test: competition ELISA on immobilized gp120, competitor labeled HJ16

b12 (antibody)
IC50 [1]: 1.16 µg/mL
plateau of inhibition [2]: 80%
